Test results as given in PMC11474037.
pKd: −log10 of the molar value.

Molecular target: insulin receptor (purified IR, consisting of α and β subunits) (human (cloned from HEK293T cells)) (UniProt P06213)
Assay: SPR

pKd: 5.48
Substance: HtB-mNG (insulin B chain fused to mNeonGreen) (domain or fragment)
